± gives the standard deviation of the averaged measurements.
Assay: total protein half-life in vivo (active degradation + dilution); higher = more stable protein
[1] = E. coli NCM3722 delta-clpP delta-lon delta-hslV, growth: N-lim chemostat, doubling time 6 h
[2] = E. coli NCM3722 delta-clpP, growth: N-lim chemostat, doubling time 6 h
[3] = E. coli NCM3722 delta-lon, growth: N-lim chemostat, doubling time 6 h
[4] = E. coli NCM3722 delta-smpB, growth: N-lim chemostat, doubling time 6 h
[5] = wild type E. coli NCM3722, growth: C-lim chemostat, doubling time 3 h
[6] = wild type E. coli NCM3722, growth: C-lim chemostat, doubling time 6 h
[7] = wild type E. coli NCM3722, growth: N-lim chemostat, doubling time 6 h
[8] = wild type E. coli NCM3722, growth: N-lim chemostat, doubling time 12 h
[9] = wild type E. coli NCM3722, growth: P-lim chemostat, doubling time 6 h
[10] = wild type E. coli NCM3722, growth: P-lim chemostat, doubling time 12 h
[11] = E. coli NCM3722 delta-hslV, growth: N-lim chemostat, doubling time 6 h
[12] = wild type E. coli NCM3722, growth: C-lim chemostat, doubling time 12 h

Sequence	total protein half-life in vivo [1]	total protein half-life in vivo [2]	total protein half-life in vivo [3]	total protein half-life in vivo [4]	total protein half-life in vivo [5]	total protein half-life in vivo [6]	total protein half-life in vivo [7]	total protein half-life in vivo [8]	total protein half-life in vivo [9]	total protein half-life in vivo [10]	total protein half-life in vivo [11]	total protein half-life in vivo [12]
MLSLYEKIKIRLIILFLLAALSFIGLFFIINYQLVSERAVKRADSRFELIQKNVGYFFKDIERSALTLKDSLYLLKNTEEIQRAVILKMEMMPFLDSVGLVLDDNKYYLFSRRANDKIVVYHQEQVNGPLVDESGRVIFADFNPSKRPWSVASDDSNNSWNPAYNCFDRPGKKCISFTLHINGKDHDLLAVDKIHVDLNWRYLNEYLDQISANDEVLFLKQGHEIIAKNQLAREKLIIYNSEGNYNIIDSVDTEYIEKTSAVPNNALFEIYFYYPGGNLLNASDKLFYLPFAFIIIVLLVVYLMTTRVFRRQFSEMTELVNTLAFLPDSTDQIEALKIREGDAKEIISIKNSIAEMKDAEIERSNKLLSLISYDQESGFIKNMAIIESNNNQYLAVGIIKLCGLEAVEAVFGVDERNKIVRKLCQRIAEKYAQCCDIVTFNADLYLLLCRENVQTFTRKIAMVNDFDSSFGYRNLRIHKSAICEPLQGENAWSYAEKLKLAISSIRDHMFSEFIFCDDAKLNEIEENIWIARNIRHAMEIGELFLVYQPIVDINTRAILGAEALCRWVSAERGIISPLKFITIAEDIGFINELGYQIIKTAMGEFRHFSQRASLKDDFLLHINVSPWQLNEPHFHERFTTIMKENGLKANSLCVEITETVIERINEHFYLNIEQLRKQGVRISIDDFGTGLSNLKRFYEINPDSIKVDSQFTGDIFGTAGKIVRIIFDLARYNRIPVIAEGVESEDVARELIKLGCVQAQGYLYQKPMPFSAWDKSGKLVKE	5.7 ± 1.7 h	7.04 ± 0.45 h	6.67 ± 0.23 h	6.334 ± 0.039 h	3 ± 0.23 h	5.9 ± 0.19 h	5.88 ± 0.38 h	12.8 ± 1.2 h	6.03 ± 0.13 h	11.8 ± 1 h	–	–
MDIVFIEQLSVITTIGVYDWEQTIEQKLVFDIEMAWDNRKAAKSDDVADCLSYADIAETVVSHVEGARFALVERVAEEVAELLLARFNSPWVRIKLSKPGAVARAANVGVIIERGNNLKENN [P0AC16]	5.71 ± 0.35 h	5.86 h	5.47 ± 0.74 h	–	3.26 ± 0.37 h	6.02 ± 0.37 h	5.39 ± 0.56 h	10.7 ± 2.2 h	6.4 ± 0.65 h	12.39 ± 0.043 h	5.4 ± 0.43 h	11.8 ± 1.3 h
MSKRRYLTGKEVQAMMQAVCYGATGARDYCLILLAYRHGMRISELLDLHYQDLDLNEGRINIRRLKNGFSTVHPLRFDEREAVERWTQERANWKGADRTDAIFISRRGSRLSRQQAYRIIRDAGIEAGTVTQTHPHMLRHACGYELAERGADTRLIQDYLGHRNIRHTVRYTASNAARFAGLWERNNLINEKLKREEV [P0ADH7]	4.85 ± 0.3 h	–	–	1.18 h	0.333 h	–	–	–	–	–	–	–
MLCVKNVSLRLPESRLLTNVNFTVDKGDIVTLMGPSGCGKSTLFSWMIGALAEQFSCTGELWLNEQRIDILPTAQRQIGILFQDALLFDQFSVGQNLLLALPATLKGNARRNAVNDALERSGLEGAFHQDPATLSGGQRARVALLRALLAQPKALLLDEPFSRLDVALRDNFRQWVFSEVRALAIPVVQVTHDLQDVPADSSVLDMAQWSENYNKLR	6.284 ± 0.01 h	5.73 ± 0.066 h	6.28 ± 0.58 h	5.27 ± 0.077 h	3.11 ± 0.35 h	6.13 ± 0.53 h	6.45 ± 0.98 h	12.7 ± 0.24 h	5.99 ± 0.28 h	13.7 ± 0.89 h	6.47 ± 0.07 h	10.8 ± 2.7 h
MTLKELLVGFGTQVRSIWMIGLHAFAKRETRMYPEEPVYLPPRYRGRIVLTRDPDGEERCVACNLCAVACPVGCISLQKAETKDGRWYPEFFRINFSRCIFCGLCEEACPTTAIQLTPDFEMGEYKRQDLVYEKEDLLISGPGKYPEYNFYRMAGMAIDGKDKGEAENEAKPIDVKSLLP [P0AFD6]	6.29 ± 0.46 h	7.36 ± 0.22 h	7.21 ± 0.13 h	6.351 ± 0.056 h	3.32 ± 0.17 h	6.25 ± 0.18 h	5.99 ± 1.2 h	15.2 ± 0.83 h	6 ± 0.08 h	13.6 ± 2.2 h	6.38 ± 0.14 h	12 ± 1.3 h
MSQFFYIHPDNPQQRLINQAVEIVRKGGVIVYPTDSGYALGCKIEDKNAMERICRIRQLPDGHNFTLMCRDLSELSTYSFVDNVAFRLMKNNTPGNYTFILKGTKEVPRRLLQEKRKTIGMRVPSNPIAQALLEALGEPMLSTSLMLPGSEFTESDPEEIKDRLEKQVDLIIHGGYLGQKPTTVIDLTDDTPVVVREGVGDVKPFL [P0AFR4]	5.38 ± 0.1 h	–	6.96 ± 1.2 h	6.51 ± 0.8 h	3.1 ± 0.11 h	6.18 ± 1.4 h	5.38 ± 0.017 h	14.4 ± 1.2 h	4.64 ± 0.17 h	12.9 ± 1.6 h	6.202 ± 0.062 h	12.2 ± 1.1 h
MIDDDGYRPNVGIVICNRQGQVMWARRFGQHSWQFPQGGINPGESAEQAMYRELFEEVGLSRKDVRILASTRNWLRYKLPKRLVRWDTKPVCIGQKQKWFLLQLVSGDAEINMQTSSTPEFDGWRWVSYWYPVRQVVSFKRDVYRRVMKEFASVVMSLQENTPKPQNASAYRRKRG [P0A776]	5.67 ± 0.079 h	5.62 ± 0.48 h	6.4 ± 0.12 h	5.02 ± 0.73 h	–	5.48 ± 0.44 h	4.84 ± 0.076 h	11.9 ± 3.9 h	–	9.25 ± 0.6 h	6.81 ± 1.3 h	9.01 ± 3.2 h
MITIRDVARQAGVSVATVSRVLNNSTLVSADTREAVMKAVSELDYRPNANAQALATQVSDTIGVVVMDVSDAFFGALVKAVDLVAQQHQKYVLIGNSYHEAEKERHAIEVLIRQRCNALIVHSKALSDDELAQFMDNIPGMVLINRVVPGYAHRCVCLDNLSGARMATRMLLNNGHQRIGYLSSSHGIEDDAMRKAGWMSALKEQDIIPPESWIGAGTPDMPGGEAAMVELLGRNLQLTAVFAYNDNMAAGALTALKDNGIAIPLHLSIIGFDDIPIARYTDPQLTTVRYPIASMAKLATELALQGAAGNIDPRASHCFMPTLVRRHSVATRQNAAAITNSTNQAM	5.93 h	3.96 h	–	–	–	4.74 ± 0.55 h	–	–	–	10.9 h	–	8.13 ± 1.9 h
MIVLVTGATAGFGECITRRFIQQGHKVIATGRRQERLQELKDELGDNLYIAQLDVRNRAAIEEMLASLPAEWCNIDILVNNAGLALGMEPAHKASVEDWETMIDTNNKGLVYMTRAVLPGMVERNHGHIINIGSTAGSWPYAGGNVYGATKAFVRQFSLNLRTDLHGTAVRVTDIEPGLVGGTEFSNVRFKGDDGKAEKTYQNTVALTPEDVSEAVWWVSTLPAHVNINTLEMMPVTQSYAGLNVHRQ	5.86 ± 0.16 h	–	6.57 ± 1.4 h	4.72 ± 0.53 h	–	–	4.82 ± 0.56 h	8.94 ± 0.42 h	6.44 ± 0.14 h	11.6 ± 1.9 h	6.26 ± 1.3 h	10.8 ± 0.87 h
MTNLTLDVNIIDFPSIPVAMLPHRCSPELLNYSVAKFIMWRKETGLSPVNQSQTFGVAWDDPATTAPEAFRFDICGSVSEPIPDNRYGVSNGELTGGRYAVARHVGELDDISHTVWGIIRHWLPASGEKMRKAPILFHYTNLAEGVTEQRLETDVYVPLA	6.15 h	–	–	–	–	–	–	–	–	–	–	–
MLSFLWDLASFIVALGVLITVHEFGHFWVARRCGVRVERFSIGFGKALWRRTDKLGTEYVIALIPLGGYVKMLDERAEPVVPELRHHAFNNKSVGQRAAIIAAGPVANFIFAIFAYWLVFIIGVPGVRPVVGEIAANSIAAEAQIAPGTELKAVDGIETPDWDAVRLQLVDKIGDESTTITVAPFGSDQRRDVKLDLRHWAFEPDKEDPVSSLGIRPRGPQIEPVLENVQPNSAASKAGLQAGDRIVKVDGQPLTQWVTFVMLVRDNPGKSLALEIERQGSPLSLTLIPESKPGNGKAIGFVGIEPKVIPLPDEYKVVRQYGPFNAIVEATDKTWQLMKLTVSMLGKLITGDVKLNNLSGPISIAKGAGMTAELGVVYYLPFLALISVNLGIINLFPLPVLDGGHLLFLAIEKIKGGPVSERVQDFCYRIGSILLVLLMGLALFNDFSRL [P0AEH1]	5.38 ± 0.54 h	4.76 ± 0.25 h	5.088 ± 0.044 h	4.624 ± 0.034 h	2.69 ± 0.22 h	4.23 ± 0.79 h	4.2 ± 0.15 h	7.28 ± 0.63 h	4.17 ± 0.6 h	6.21 ± 0.8 h	4.25 ± 0.049 h	7.59 ± 0.17 h
MKIVKAEVFVTCPGRNFVTLKITTEDGITGLGDATLNGRELSVASYLQDHLCPQLIGRDAHRIEDIWQFFYKGAYWRRGPVTMSAISAVDMALWDIKAKAANMPLYQLLGGASREGVMVYCHTTGHSIDEALDDYARHQELGFKAIRVQCGIPGMKTTYGMSKGKGLAYEPATKGQWPEEQLWSTEKYLDFMPKLFDAVRNKFGFNEHLLHDMHHRLTPIEAARFGKSIEDYRMFWMEDPTPAENQECFRLIRQHTVTPIAVGEVFNSIWDCKQLIEEQLIDYIRTTLTHAGGITGMRRIADFASLYQVRTGSHGPSDLSPVCMAAALHFDLWVPNFGVQEYMGYSEQMLEVFPHNWTFDNGYMHPGDKPGLGIEFDEKLAAKYPYEPAYLPVARLEDGTLWNW	5.64 ± 0.3 h	–	–	–	3.61 ± 0.2 h	6.03 ± 0.18 h	–	–	7.33 h	> 16 h	–	10.5 ± 1.8 h
MRRFFWLVAAALLLAGCAGEKGIVEKEGYQLDTRRQAQAAYPRIKVLVIHYTADDFDSSLATLTDKQVSSHYLVPAVPPRYNGKPRIWQLVPEQELAWHAGISAWRGATRLNDTSIGIELENRGWQKSAGVKYFAPFEPAQIQALIPLAKDIIARYHIKPENVVAHADIAPQRKDDPGPLFPWQQLAQQGIGAWPDAQRVNFYLAGRAPHTPVDTASLLELLARYGYDVKPDMTPREQRRVIMAFQMHFRPTLYNGEADAETQAIAEALLEKYGQD	6.4 ± 0.46 h	6.3559 ± 0.0044 h	7.41 ± 0.34 h	5.75 ± 0.39 h	3.0599 ± 3.5e-05 h	–	–	12.4 ± 0.43 h	5.63 ± 1.1 h	13.9 ± 1.3 h	6.75 ± 0.56 h	11.2 ± 0.38 h
MKVDIDTSDKLYADAWLGFKGTDWKNEINVRDFIQHNYTPYEGDESFLAEATPATTELWEKVMEGIRIENATHAPVDFDTNIATTITAHDAGYINQPLEKIVGLQTDAPLKRALHPFGGINMIKSSFHAYGREMDSEFEYLFTDLRKTHNQGVFDVYSPDMLRCRKSGVLTGLPDGYGRGRIIGDYRRVALYGISYLVRERELQFADLQSRLEKGEDLEATIRLREELAEHRHALLQIQEMAAKYGFDISRPAQNAQEAVQWLYFAYLAAVKSQNGGAMSLGRTASFLDIYIERDFKAGVLNEQQAQELIDHFIMKIRMVRFLRTPEFDSLFSGDPIWATEVIGGMGLDGRTLVTKNSFRYLHTLHTMGPAPEPNLTILWSEELPIAFKKYAAQVSIVTSSLQYENDDLMRTDFNSDDYAIACCVSPMVIGKQMQFFGARANLAKTLLYAINGGVDEKLKIQVGPKTAPLMDDVLDYDKVMDSLDHFMDWLAVQYISALNIIHYMHDKYSYEASLMALHDRDVYRTMACGIAGLSVATDSLSAIKYARVKPIRDENGLAVDFEIDGEYPQYGNNDERVDSIACDLVERFMKKIKALPTYRNAVPTQSILTITSNVVYGQKTGNTPDGRRAGTPFAPGANPMHGRDRKGAVASLTSVAKLPFTYAKDGISYTFSIVPAALGKEDPVRKTNLVGLLDGYFHHEADVEGGQHLNVNVMNREMLLDAIEHPEKYPNLTIRVSGYAVRFNALTREQQQDVISRTFTQAL	4.15 h	–	–	1.87 ± 0.4 h	2.12 ± 0.2 h	2.56 ± 0.43 h	1.88 h	3.13 h	3.24 h	6.82 ± 0.17 h	–	3.63 ± 1.1 h

Source: the supplement of paper PMC11246515
